Laboratory results: US20140086916A1 (Merck Sharp & Dohme, published 2014)
Where two headings read alike, the source gives them in different places.

T1: FcγRIIa (Pichia pastoris produced) (UniProt P12318 34-217, limits assumed)
T1 construct: also called CD32A
T1 sequence (looked up): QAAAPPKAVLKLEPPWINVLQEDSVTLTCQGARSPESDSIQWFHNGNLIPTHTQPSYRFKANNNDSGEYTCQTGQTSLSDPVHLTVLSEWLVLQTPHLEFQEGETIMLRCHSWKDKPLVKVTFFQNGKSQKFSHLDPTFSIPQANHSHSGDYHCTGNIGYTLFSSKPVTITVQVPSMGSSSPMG

T2: FcγRIIb (Pichia pastoris produced) (UniProt P31994 43-217, limits assumed)
T2 construct: also called FcgRIIB; CD32B
T2 sequence (looked up): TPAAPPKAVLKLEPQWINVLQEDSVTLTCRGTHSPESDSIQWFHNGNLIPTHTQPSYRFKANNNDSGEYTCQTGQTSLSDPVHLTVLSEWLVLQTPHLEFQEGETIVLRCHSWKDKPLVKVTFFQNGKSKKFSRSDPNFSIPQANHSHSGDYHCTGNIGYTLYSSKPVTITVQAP

B1: 1F11 wildtype (parent) humanized anti-PCSK9 monoclonal IgG1 antibody (antibody)
heavy: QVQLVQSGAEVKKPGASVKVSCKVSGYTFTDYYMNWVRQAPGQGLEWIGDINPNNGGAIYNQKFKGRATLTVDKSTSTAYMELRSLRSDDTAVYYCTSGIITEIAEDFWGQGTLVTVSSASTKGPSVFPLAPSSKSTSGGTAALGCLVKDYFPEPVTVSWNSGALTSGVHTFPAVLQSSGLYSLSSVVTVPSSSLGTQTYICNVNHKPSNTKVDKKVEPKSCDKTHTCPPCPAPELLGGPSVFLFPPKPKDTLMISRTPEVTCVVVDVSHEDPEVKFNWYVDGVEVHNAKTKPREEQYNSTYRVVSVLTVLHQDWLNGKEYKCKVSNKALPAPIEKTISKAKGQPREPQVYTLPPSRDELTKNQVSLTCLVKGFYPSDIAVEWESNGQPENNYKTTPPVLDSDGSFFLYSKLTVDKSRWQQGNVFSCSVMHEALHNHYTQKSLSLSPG
light: DIQMTQSPSSLSASVGDRVTITCKASQNVGTNVVWYQQKPGKAPKALIHSASYRYSGVPSRFSGSGSGTDFTLTISSLQPEDFATYYCQQYKTYPYTFGQGTKVEIKRTVAAPSVFIFPPSDEQLKSGTASVVCLLNNFYPREAKVQWKVDNALQSGNSQESVTEQDSKDSTYSLSSTLTLSKADYEKHKVYACEVTHQGLSSPVTKSFNRGEC
notes: Produced in glycoengineered Pichia pastoris GFI5.0 (strain YGLY21351); also called 1F11 IgG1 GS5.0; YGLY21351
B2: 1F11 IgG1 F243A/V264A double mutein anti-PCSK9 antibody (antibody)
heavy: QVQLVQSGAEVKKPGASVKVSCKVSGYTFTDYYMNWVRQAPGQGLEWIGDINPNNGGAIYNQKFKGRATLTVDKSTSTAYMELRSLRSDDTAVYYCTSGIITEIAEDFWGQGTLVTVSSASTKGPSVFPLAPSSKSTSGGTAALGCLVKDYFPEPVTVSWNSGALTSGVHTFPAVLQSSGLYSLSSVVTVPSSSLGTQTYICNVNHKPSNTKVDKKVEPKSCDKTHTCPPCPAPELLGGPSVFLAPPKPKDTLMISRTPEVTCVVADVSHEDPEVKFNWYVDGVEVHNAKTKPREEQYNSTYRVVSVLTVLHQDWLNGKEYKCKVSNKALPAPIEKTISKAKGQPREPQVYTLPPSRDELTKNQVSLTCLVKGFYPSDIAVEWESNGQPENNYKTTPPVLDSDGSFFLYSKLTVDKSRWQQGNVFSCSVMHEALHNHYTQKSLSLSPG
light: B1 light
notes: sialylated N-glycans; also called 1F11 DM; YGLY23258

Assays:
[1] = biological target: T1, FcγRIIa (Pichia pastoris produced); assay: ELISA-type plate assay, FcγR coated, antibody dimerized with AP-conjugated goat anti-human IgG F(ab')2, RFU readout
Description: (§1) Fcγ receptor binding assays were carried out as described (Shields, et al. (2001) J. Biol. Chem. 276:6591-6604) with minor modifications. High protein binding 96-well plates (Corning Costar) were coated with 100 μL per well of Fcγ receptor solutions in PBS at the following concentrations: 1 μg/mL for both FcγRI (R&D Systems) and FcγRIIa (Pichia pastoris produced), 2 μg/mL for FcγRIIb (P. pastoris produced), 0.8 μg/mL for FcγRIIIa-F158, and 0.4 μg/mL for FcγRIIIa-V158 (both P. pastoris produced). All Pichia pastoris produced receptors were expressed and purified as described (Li, et al. (2006) Nature Biotechnology 24:210-215). Monomeric antibody samples added to the FcγRI plate were serially diluted in assay diluent (1×PBS, 1% BSA, and 0.05% Tween20) and 100 μL, per well was added to the plate. Antibody samples prepared for the remaining receptors require a one hour dimerization step with half molar ratio of goat anti-human IgG F(ab′)2 F(ab′)2 that is conjugated with alkaline phosphatase for detection. These dimerized F(ab′)2/antibody complexes were also serially diluted and 100 μL per well were added to the remaining receptor plates and all plates were incubated for one hour at room temperature. FcγRI bound sample antibody was detected using the same goat anti-human IgG F(ab′)2 alkaline phosphatase conjugated F(ab′)2. Sample antibody binding was quantified by measuring excitation at 340 nm and emission at 465 nm after 18 hour incubation with SuperPhos, 4-MUP Fluorescence AP Substrate Detection System (Virolabs).

[2] = biological target: T3, FcγRIIIa-F158 (Pichia pastoris produced) (UniProt P08637 17-208, limits assumed); assay: as above
T3 construct: also called FcγRIIIA LF; FcgRIIIA LF
Description: as §1

[3] = biological target: T2, FcγRIIb (Pichia pastoris produced); assay: as above
Description: as §1

[4] = biological target: T3, FcγRIIIa-F158 (Pichia pastoris produced); assay: as above; remark: listed apart in the source
Description: as §1

[5] = biological target: T2, FcγRIIb (Pichia pastoris produced); assay: as above; remark: listed apart in the source
Description: as §1

[6] = biological target: T3, FcγRIIIa-F158 (Pichia pastoris produced); assay: as above; remark: listed apart in the source
Description: as §1

[7] = biological target: T2, FcγRIIb (Pichia pastoris produced); assay: FcγR affinity assay 'as described in Example 7', n = 3; printed as Affinity (nM) ± STDEV; Table 12 affinity (nM) assay, n = 3; not the dimer ELISA of Tables 3-7
[8] = biological target: T3, FcγRIIIa-F158 (Pichia pastoris produced); assay: fold change of the Table 12 affinities
Description: as §1

[9] = biological target: T4, FcγRIIIa-V158 (Pichia pastoris produced) (UniProt P08637 17-208, limits assumed); assay: fold change of the Table 12 affinities
T4 construct: also called FcγRIIIA LV; FcgRIIIA LV
Description: as §1

[10] = biological target: T3, FcγRIIIa-F158 (Pichia pastoris produced); assay: summary of the FcγR ELISAs
Description: as §1

FcγRI (R&D Systems) = biological target: T5, FcγRI (R&D Systems) (UniProt P12314 16-288); assay: summary of the FcγR ELISAs
T5 construct: Bought reagent, coated on the plate at 1 µg/mL; also called Fc gamma receptor I; CD64
Description: as §1

[11] = biological target: T4, FcγRIIIa-V158 (Pichia pastoris produced); assay: summary of the FcγR ELISAs
Description: as §1

[12] = biological target: T3, FcγRIIIa-F158 (Pichia pastoris produced); assay: ELISA on plate-coated receptor; antibody dimerized with anti-human IgG F(ab')2-AP; ELISA IC50, YGLY23258 (dimer), Table 6 experiment
Description: as §1, with “These dimerized F(ab′)2/antibody complexes were also serially diluted and 100 μL per well were added to the remaining receptor plates and all plates were incubated for one hour at room temperature.” left out

[13] = biological target: T4, FcγRIIIa-V158 (Pichia pastoris produced); assay: as above
Description: as §1, with “These dimerized F(ab′)2/antibody complexes were also serially diluted and 100 μL per well were added to the remaining receptor plates and all plates were incubated for one hour at room temperature.” left out

[14] = biological target: T3, FcγRIIIa-F158 (Pichia pastoris produced); assay: ELISA on plate-coated receptor; antibody dimerized with anti-human IgG F(ab')2-AP; ELISA IC50, YGLY23258 (dimer), Table 4 experiment
Description: as §1, with “These dimerized F(ab′)2/antibody complexes were also serially diluted and 100 μL per well were added to the remaining receptor plates and all plates were incubated for one hour at room temperature.” left out

[15] = biological target: T4, FcγRIIIa-V158 (Pichia pastoris produced); assay: as above
Description: as §1, with “These dimerized F(ab′)2/antibody complexes were also serially diluted and 100 μL per well were added to the remaining receptor plates and all plates were incubated for one hour at room temperature.” left out

T4 sequence (P08637 17-208 F176V limits assumed): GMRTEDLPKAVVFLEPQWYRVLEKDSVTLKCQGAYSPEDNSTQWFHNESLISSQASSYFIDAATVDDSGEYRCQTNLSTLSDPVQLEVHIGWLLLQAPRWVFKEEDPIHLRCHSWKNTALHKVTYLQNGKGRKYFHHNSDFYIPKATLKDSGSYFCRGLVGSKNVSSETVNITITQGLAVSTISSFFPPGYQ
T3 sequence (P08637 17-208 limits assumed): as the sequence (P08637 17-208 F176V limits assumed) above, with V160F counted along it
T5 sequence (P12314 16-288 limits assumed): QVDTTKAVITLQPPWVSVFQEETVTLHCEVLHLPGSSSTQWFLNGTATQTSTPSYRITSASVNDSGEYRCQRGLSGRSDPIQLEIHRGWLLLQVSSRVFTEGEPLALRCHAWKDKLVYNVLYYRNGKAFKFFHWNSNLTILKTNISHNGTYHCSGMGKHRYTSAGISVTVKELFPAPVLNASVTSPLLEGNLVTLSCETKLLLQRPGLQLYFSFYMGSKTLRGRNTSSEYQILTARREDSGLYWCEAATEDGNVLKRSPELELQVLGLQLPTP

Row | Binder | EC50 (read off the curve) [1] [µg/mL] | EC50 (read off the curve) [2] [µg/mL] | EC50 (read off the curve) [3] [µg/mL] | EC50 (read off the curve) [4] [µg/mL] | EC50 (read off the curve) [5] [µg/mL] | EC50 (read off the curve) [6] [µg/mL] | Kd [7] [nM] | fold change in affinity vs 1F11 IgG1 GS5.0 [8] [fold] | fold change in affinity vs 1F11 IgG1 GS5.0 [9] [fold] | decreased affinity fold vs wildtype parent antibody produced in GS 5.0 [10] [fold] | decreased affinity fold vs wildtype parent antibody produced in GS 5.0 (FcγRI (R&D Systems)) [fold] | decreased affinity fold vs wildtype parent antibody produced in GS 5.0 [11] [fold] | IC50 [12] [µg/mL] | IC50 [13] [µg/mL] | IC50 [14] [µg/mL] | IC50 [15] [µg/mL]
1 | B1 | ~0.06 | ~0.02 | ~0.1 | ~0.02 | ~0.4 | ~0.02 | – | – | – | – | – | – | – | – | – | –
2 | B2 | – | – | – | – | – | – | 1690 | 12 | 647 | 8 to 60 | 4 | 2 to 6 | 1.17 | 0.16 | 0.69 | 0.12
